Ends that are not written are not given here.
How the values were obtained:
SLC13A3 = target: T1, SLC13A3 (Homo sapiens, UniProt Q8WWT9); assay: Retrogenix cell microarray screen, SLC13A3; format: binding; details: 20 μg/ml test protein; for Sequential incubation confirmatory screening result, SLC13A3: sequential staining method, expressed in HEK293 cells
T1 construct: host or cells: HEK293
T1 sequence (Q8WWT9 1-602): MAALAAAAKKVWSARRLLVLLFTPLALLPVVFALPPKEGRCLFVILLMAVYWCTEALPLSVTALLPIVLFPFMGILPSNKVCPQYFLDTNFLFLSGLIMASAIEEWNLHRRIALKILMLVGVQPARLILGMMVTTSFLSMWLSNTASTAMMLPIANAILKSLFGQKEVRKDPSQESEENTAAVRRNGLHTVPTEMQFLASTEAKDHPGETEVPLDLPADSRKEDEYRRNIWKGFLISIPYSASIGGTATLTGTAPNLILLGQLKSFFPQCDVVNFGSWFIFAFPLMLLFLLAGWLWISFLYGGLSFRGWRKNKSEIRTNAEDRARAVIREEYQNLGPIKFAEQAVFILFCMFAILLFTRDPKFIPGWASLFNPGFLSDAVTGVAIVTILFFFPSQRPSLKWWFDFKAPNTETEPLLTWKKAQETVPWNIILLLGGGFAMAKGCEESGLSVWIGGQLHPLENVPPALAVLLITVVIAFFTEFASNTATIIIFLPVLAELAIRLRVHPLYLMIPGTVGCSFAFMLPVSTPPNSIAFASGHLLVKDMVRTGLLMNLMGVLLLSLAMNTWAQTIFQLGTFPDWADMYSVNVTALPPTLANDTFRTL
Procedure: (§1) To identify potential interacting partners of HRS, and related HRS polypeptides, the Retrogenix cell microarray screening technology (Retrogenix Ltd., High Peak Rd, United Kingdom) was used to evaluate binding of a HRS-Fc fusion protein construct ([Fc-HRS(2-60)] to a library of approximately 4500 membrane bound human proteins individually expressed in HEK293 cells.
(§2) In brief, HEK293 cells were plated onto glass cover slides which have been pre-treated by the application of discrete expression vectors to enable reverse transfection and expression of each of the 4500 membrane proteins, to create a cell microarray. Transfection efficiencies were assessed via ZsGreen1 expression and exceeded the minimum threshold for all of the library members screened.
(§3) Use of a smaller HRS fragment with a Fc tag provided for high sensitivity detection via the use of an AlexaFluor647 labeled anti-human IgG Fc antibody (AF647) as the detection reagent, and readily available controls to confirm specificity. The detection antibody was used at screening concentrations of 2, 5, and 20 μg/ml, as more fully described below.
Test Protein was screened at a concentration of 20 μg/ml using two different screening formats; either a sequential staining method, or a pre-incubation staining method. Sequential staining involved, in brief, the sequential addition to the test cells, of the test protein and detection reagents, while the pre-incubation staining method involved the pre-incubation of the test protein with the detection reagents (2:1 molar ratio of test protein to detection antibody) to pre-form higher avidity complexes prior to the addition to the test cells.
(§4) Primary hits (duplicate spots) were identified by analyzing fluorescence intensity in the AlexaFluor 647 and ZsGreen1 emission channels using the ImageQuant system, following standard fluorescent methodology. […]

MS4A1 = target: T2, MS4A1 (Homo sapiens, UniProt P11836); assay: Retrogenix cell microarray screen, MS4A1; format: binding; details: 20 μg/ml test protein
T2 construct: host or cells: HEK293
T2 sequence (P11836 1-297): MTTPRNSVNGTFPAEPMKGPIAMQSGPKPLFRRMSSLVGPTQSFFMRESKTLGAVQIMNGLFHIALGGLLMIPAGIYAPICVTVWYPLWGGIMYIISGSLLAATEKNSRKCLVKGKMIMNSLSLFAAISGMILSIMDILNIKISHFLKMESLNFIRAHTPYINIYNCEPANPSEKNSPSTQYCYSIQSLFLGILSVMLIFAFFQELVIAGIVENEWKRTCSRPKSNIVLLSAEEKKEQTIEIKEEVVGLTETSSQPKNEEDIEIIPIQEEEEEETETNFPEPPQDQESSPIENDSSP
Procedure: as §1, §2
as §3, with “below. […]” for “below.”
as §4

FCGR1A = target: T3, FCGR1A (Homo sapiens, UniProt P12314); assay: Retrogenix cell microarray screen, FCGR1A; format: binding; details: sequential staining method; 20 μg/ml test protein; expressed in HEK293 cells
T3 construct: host or cells: HEK293
Procedure: as §1, §2
as §3, with “below. […]” for “below.”
as §4

FCGR2A = target: T4, FCGR2A (Homo sapiens, UniProt P12318); assay: Retrogenix cell microarray screen, FCGR2A; format: binding; details: sequential staining method; 20 μg/ml test protein; expressed in HEK293 cells
T4 construct: host or cells: HEK293
T4 sequence (P12318 34-317): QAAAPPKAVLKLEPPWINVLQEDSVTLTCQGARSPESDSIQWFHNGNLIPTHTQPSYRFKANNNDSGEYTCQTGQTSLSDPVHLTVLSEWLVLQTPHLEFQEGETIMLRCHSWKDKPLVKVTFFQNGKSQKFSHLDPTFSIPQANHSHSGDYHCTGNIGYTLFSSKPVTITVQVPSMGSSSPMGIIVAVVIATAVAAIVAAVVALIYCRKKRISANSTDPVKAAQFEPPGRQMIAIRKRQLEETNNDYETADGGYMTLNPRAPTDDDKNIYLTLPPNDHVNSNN
Procedure: as §1, §2
as §3, with “below. […]” for “below.”
as §4

IGHG3 = target: T5, IGHG3 (Homo sapiens, UniProt P01860); assay: Retrogenix cell microarray screen, IGHG3; format: binding; details: sequential staining method; 20 μg/ml test protein; expressed in HEK293 cells
T5 construct: host or cells: HEK293
Procedure: as §1, §2
as §3, with “below. […]” for “below.”
as §4

NRP2 = target: T6, NRP2 (Homo sapiens, UniProt O60462); assay: SPR protein-protein interaction, human NRP2 over immobilized protein; format: binding; details: NRP2 flowed as analyte (50 nM or 20 nM); running buffer with 5 mM CaCl2
T6 construct: Fc (C); purchased R&D Systems 2215-N2
Procedure: Protein-Protein Interaction studies. […] SPR experiments were conducted on a Bio-Rad ProteOn XPR36 Protein Interaction Array instrument. Proteins were immobilized on different channels of ProteOn GLC sensor chips through amine coupling. Analyte proteins were flowed over the immobilized proteins. The sensor chip surface was regenerated between each analyte run to remove interacting proteins. Data was double referenced against an interspot (untreated chip surface) and a blank surface (activated and deactivated for amine coupling).
Studies were performed to confirm the binding specificity of Neuropilin 2 (NRP2) to Fc-HRS(2-60) using orthologous methods to those used in the large scale Retrogenix screening (Example 1). In a series of experiments, Fc-HRS(2-60) and related proteins were immobilized on SPR chips, and NRP2 and related proteins were flowed as analytes. Upon confirmation of the NRP2:Fc-HRS(2-60) interaction, the dependence on divalent cations was tested as NRP2 is known to have Ca^2+ binding sites. The effects of previously characterized NRP2 ligands on the NRP2: Fc-HRS(2-60) interaction was also tested to determine if these known ligands have competitive effects on the Fc-HRS(2-60) interaction.

[1] = test system: murine model of sclerodermatous chronic graft vs. host disease (scl cGvHD); assay: Murine model of sclerodermatous chronic graft vs. host disease; format: in vivo, mouse; details: Fc-HRS(2-60) 0.4 mg/kg weekly IV, nintedanib daily oral, termination 8 weeks
Procedure: This study was designed to investigate the in vivo potential of test compounds in a murine model of sclerodermatous chronic graft vs. host disease (scl cGvHD). A H-2^d minor histocompatibility antigen-mismatched model was employed. The model was prepared by allogenic transplantation of bone marrow cells and splenocytes of male donor B10.D2 mice into 8 week old female Balb/c mice which had been subject to whole body irradiation with 700 cGy 6 hours prior to transplantation.
Treatment Regimen. Fifty-six (56) Balb/c mice, (Janvier, Le Genest St. Isle, France, female, 8 weeks) were used as recipients in this study while B10.D2 mice (Jackson Laboratory, Bar Harbor, Me., USA, male) were euthanized to provide donor cells for allogenic transplantation. The animals were assigned to study groups of 8 mice, and housed in specific pathogen-free conditions with sterile food and water. In brief, animals received weekly intravenous injections of the Vehicle of Fc-HRS(2-60) (20 mM Histidine/125 mM NaCl/10 mM Methionine/3% Sucrose/0.02% PS20, pH 6.9) beginning on Day 7 post transplantation (groups 2 and 3) or Fc-HRS(2-60) (0.4 mg/kg) beginning on Day 7 (group 4) or Day 21 (group 6) post-transplantation. […] Tissues were examined histologically using common staining techniques and tissue homogenates were analyzed for hydroxyproline content as an index of collagen content. […]

CD86 = target: T7, CD86 (Homo sapiens, UniProt P42081); assay: Retrogenix cell microarray screen, CD86; format: binding; details: 20 μg/ml test protein
T7 construct: host or cells: HEK293
T7 sequence (P42081 24-329): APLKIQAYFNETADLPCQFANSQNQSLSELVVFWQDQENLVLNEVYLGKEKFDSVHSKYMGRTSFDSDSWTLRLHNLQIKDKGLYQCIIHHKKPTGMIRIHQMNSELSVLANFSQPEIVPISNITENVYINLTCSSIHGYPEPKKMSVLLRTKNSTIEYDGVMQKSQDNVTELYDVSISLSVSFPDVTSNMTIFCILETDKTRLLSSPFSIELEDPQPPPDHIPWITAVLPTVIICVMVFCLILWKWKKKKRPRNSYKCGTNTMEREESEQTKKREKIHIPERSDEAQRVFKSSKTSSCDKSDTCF
Procedure: as §1, §2
as §3, with “below. […]” for “below.”
as §4

[2] = pre-incubation staining method (2:1 test protein to detection antibody), HEK293 cells
[3] = sequential staining method, expressed in HEK293 cells

T6 sequence (O60462 21-931): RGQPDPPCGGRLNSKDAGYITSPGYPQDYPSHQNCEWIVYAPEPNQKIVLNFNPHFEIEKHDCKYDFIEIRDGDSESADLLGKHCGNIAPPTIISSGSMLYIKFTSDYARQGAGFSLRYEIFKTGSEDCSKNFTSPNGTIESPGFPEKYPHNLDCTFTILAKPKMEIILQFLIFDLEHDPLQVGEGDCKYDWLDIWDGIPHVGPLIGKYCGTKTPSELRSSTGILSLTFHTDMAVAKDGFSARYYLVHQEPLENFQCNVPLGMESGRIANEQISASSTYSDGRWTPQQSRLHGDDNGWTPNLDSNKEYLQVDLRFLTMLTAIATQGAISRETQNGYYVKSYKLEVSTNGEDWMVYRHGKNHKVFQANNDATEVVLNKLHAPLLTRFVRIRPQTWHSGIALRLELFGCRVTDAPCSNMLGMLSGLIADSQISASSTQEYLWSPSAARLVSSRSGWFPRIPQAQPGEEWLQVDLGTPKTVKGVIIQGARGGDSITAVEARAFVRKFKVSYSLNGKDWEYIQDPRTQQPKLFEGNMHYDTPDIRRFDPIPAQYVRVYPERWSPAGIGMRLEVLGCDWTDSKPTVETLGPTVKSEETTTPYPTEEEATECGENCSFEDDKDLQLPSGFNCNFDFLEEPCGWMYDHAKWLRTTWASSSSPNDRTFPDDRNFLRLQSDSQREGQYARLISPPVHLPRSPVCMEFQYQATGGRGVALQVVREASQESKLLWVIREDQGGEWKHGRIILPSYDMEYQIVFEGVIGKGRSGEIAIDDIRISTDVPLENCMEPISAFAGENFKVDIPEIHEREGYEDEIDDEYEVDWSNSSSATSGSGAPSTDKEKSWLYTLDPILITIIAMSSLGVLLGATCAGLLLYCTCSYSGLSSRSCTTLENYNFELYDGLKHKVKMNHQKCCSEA
T5 sequence (P01860 whole entry): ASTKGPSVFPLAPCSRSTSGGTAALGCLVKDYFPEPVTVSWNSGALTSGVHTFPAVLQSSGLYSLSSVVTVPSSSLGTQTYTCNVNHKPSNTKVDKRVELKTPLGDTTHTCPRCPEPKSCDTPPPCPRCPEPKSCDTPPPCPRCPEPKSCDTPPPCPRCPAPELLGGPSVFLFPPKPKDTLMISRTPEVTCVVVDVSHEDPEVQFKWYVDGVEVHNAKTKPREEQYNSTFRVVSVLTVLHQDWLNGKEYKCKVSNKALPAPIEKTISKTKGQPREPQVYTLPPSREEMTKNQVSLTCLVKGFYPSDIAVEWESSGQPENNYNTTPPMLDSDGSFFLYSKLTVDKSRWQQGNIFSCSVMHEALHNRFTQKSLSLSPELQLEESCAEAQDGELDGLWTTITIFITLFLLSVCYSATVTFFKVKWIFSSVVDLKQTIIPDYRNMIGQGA
T3 sequence (P12314 16-374): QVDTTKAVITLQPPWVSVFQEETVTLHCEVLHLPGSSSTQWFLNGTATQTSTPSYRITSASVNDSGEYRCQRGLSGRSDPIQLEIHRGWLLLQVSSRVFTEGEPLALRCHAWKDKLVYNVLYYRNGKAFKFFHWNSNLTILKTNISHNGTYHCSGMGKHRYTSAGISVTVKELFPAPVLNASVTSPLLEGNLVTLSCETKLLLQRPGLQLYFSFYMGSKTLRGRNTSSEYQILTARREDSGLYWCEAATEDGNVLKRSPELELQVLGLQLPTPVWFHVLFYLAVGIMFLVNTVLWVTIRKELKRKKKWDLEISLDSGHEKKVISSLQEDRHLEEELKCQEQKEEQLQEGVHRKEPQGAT

Row | Compound | Sequential incubation confirmatory screening result, SLC13A3 (SLC13A3) | Sequential incubation confirmatory screening result, FCGR1A (FCGR1A) | Sequential incubation confirmatory screening result, FCGR2A (FCGR2A) | Sequential incubation confirmatory screening result, IGHG3 (IGHG3) | binding of human NRP2 to immobilized protein (SPR) (NRP2) | also measured
1 | RITUXIMAB | INVERSE | NON SPEC | NON SPEC | STRONG |  | Pre-incubation confirmatory screening, Binding scoring, SLC13A3 (SLC13A3; [2]): INVERSE; Pre-incubation confirmatory screening, Binding scoring, MS4A1 (MS4A1; [2]): STRONG; Sequential incubation confirmatory screening result, MS4A1 (MS4A1; [3]): STRONG
2 | GARS Fc-WHEP: Fc domain fused to the WHEP domain of GARS (VLAPLRLAVRQQGDLVRKLKEDKAPQVDVDKAVAELKARKRVLEAKELALQPKDDIV; not fully specified (N-terminus); also: fused to dimerising Fc domain (not included)) |  |  |  |  | does not bind | 
3 | MARS Fc-WHEP: Fc domain fused to the WHEP domain of MARS (QIQALMDEVTKQGNIVRELKAQKADKNEVAAEVAKLLDLKKQLAVAEGKPPEAPKGK; not fully specified (N-terminus); also: fused to dimerising Fc domain (not included)) |  |  |  |  | does not bind | 
4 | WARS WHEP: WHEP domain of WARS with a V5/His tag (SLLELFNSIATQGELVRSLKAGNASKDEIDSAVKMLVSLKMSYKAAAGEDYKADCPP; also: V5/His tag (not included)) |  |  |  |  | does not bind | 
5 | COC(=O)c1ccc2c(c1)NC(=O)/C2=C(\Nc1ccc(N(C)C(=O)CN2CCN(C)CC2)cc1)c1ccccc1 [nintedanib] |  |  |  |  |  | measures of fibrosis in skin and lung ([1]; intervention beginning 7 days post-transplantation): significantly ameliorated all measures of fibrosis; fibrotic endpoints in skin and lung ([1]; intervention beginning 21 days post-transplantation): significantly improved most endpoints measured
6 | CTLA4-FC | NON SPEC | NON SPEC | NON SPEC | STRONG |  | Pre-incubation confirmatory screening, Binding scoring, CD86 (CD86; [2]): STRONG; Sequential incubation confirmatory screening result, CD86 (CD86; [3]): STRONG
